The target in one experiment is DQA1*0501/DQB1*0201 (Homo sapiens, UniProt P01909+P01920, A45G/A70V/D89A/E106A/E77G/E98D/H199R/L107V/N214S/P84L/P87L/T103K/T109R/T172A/T60S/V78E/V99I/Y58L/Y62S/Y69I/Y79F). In words: biochemical.
A further experiment has as its target DQA1*0102/DQB1*0602 (Homo sapiens, UniProt P01909+P01920, A157G/A45G/C70R/E118A/E183D/E77G/F83G/G63E/H151Q/H199R/H252R/H253Q/I129T/I235V/I88M/INS77G/K197Q/L117V/L119F/L178F/L71W/L74F/L85Q/L91A/L98M/N214S/P87R/Q116E/Q76K/R102G/R240Q/R75S/R78G/S102Y/S185I/S41F/S97I/T121G/T122I/T172A/T86R/V229M/V68A/V73E/Y34C/Y41F/Y58L). As to the kind of experiment: biochemical. The experiment is classed as binding.

Another experiment has as its target DQA1*0101/DQB1*0501 (Homo sapiens, UniProt P01909+P01920, A157S/A45G/A70V/C70R/D89V/E106S/E118A/E183D/E77G/F83G/G63E/H151Q/H199R/H252R/H253Q/I129T/I235V/I88M/INS77G/K197Q/L107V/L117V/L119Y/L178F/L71W/L74F/L85Q/L91A/L98M/M46L/N214S/P87R/Q116E/Q256R/Q57E/Q76K/R102G/R240Q/R75S/R78G/S102Y/S185I/S41F/S97I/T103A/T109R/T121G/T122I/T172A/T86R/V148I/V68A/V73E/Y34C/Y58G/Y62H). As to the kind of experiment: biochemical. The experiment is classed as binding.

For experiment [1], the target named is HLA-DQ DQA1*0301/DQB1*0302 (human (endogenous in EBV-transformed cell line Preiss)). As to the kind of experiment: radioligand binding.
For experiment [2], the target named is HLA-DQ DQA1*0501/DQB1*0201 (human (endogenous in EBV-transformed cell line VAVY)). In words: radioligand binding.
Experiment [3] has as its target HLA-DQ DQA1*0101/DQB1*0501 (human (endogenous in EBV-transformed cell line LG2)). In words: radioligand binding.

Peptide text beside a SMILES is read from it.

The IC50 is the concentration that gives 50% inhibition. Lower therefore signals higher potency. `CC[C@H](C)[C@H](NC(=O)[C@H](CO)NC(=O)[C@H](CCC(=O)O)NC(=O)[C@H](C)NC(=O)[C@H](CCC(=O)O)NC(=O)[C@H](CCSC)NC(=O)[C@H](CCC(N)=O)NC(=O)[C@H](CCCCN)NC(=O)[C@@H](NC(=O)[C@H](CC(=O)O)NC(=O)[C@H](CCC(=O)O)NC(=O)[C@H](CCSC)NC(=O)[C@H](C)NC(=O)[C@H](CCC(N)=O)NC(=O)[C@H](CC(=O)O)NC(=O)[C@H](CCC(=O)O)NC(=O)[C@@H](N)[C@@H](C)O)[C@@H](C)CC)C(=O)N[C@@H](CO)C(=O)O` came in with an IC50 on DQA1*0501/DQB1*0201 of 439 nM. That is a sub-micromolar value.

`CC[C@H](C)[C@H](N)C(=O)N[C@@H](CC(N)=O)C(=O)N[C@@H](CCC(=O)O)C(=O)N1CCC[C@H]1C(=O)N[C@H](C(=O)N[C@@H](C)C(=O)N[C@@H](C)C(=O)N[C@@H](C)C(=O)N[C@H](C(=O)N[C@@H](C)C(=O)N[C@@H](Cc1ccc(O)cc1)C(=O)NCC(=O)N[C@@H](CC(C)C)C(=O)N[C@@H](CC(=O)O)C(=O)N[C@@H](CCCNC(=N)N)C(=O)O)[C@@H](C)CC)[C@@H](C)O` (H-INEPTAAAIAYGLDR-OH) came in with an IC50 on DQA1*0102/DQB1*0602 of 6.3 nM. Regarding `CC(C)C[C@H](NC(=O)[C@@H](NC(=O)[C@H](Cc1c[nH]cn1)NC(=O)[C@H](CO)NC(=O)[C@H](Cc1ccccc1)NC(=O)[C@H](CO)NC(=O)CNC(=O)CNC(=O)[C@H](CC(C)C)NC(=O)[C@H](Cc1ccc(O)cc1)NC(=O)[C@H](CCCNC(=N)N)NC(=O)[C@H](Cc1ccc(O)cc1)NC(=O)[C@H](CC(C)C)NC(=O)[C@@H]1CCCN1)C(C)C)C(=O)O`, the IC50 against DQA1*0101/DQB1*0501 came out at 2460 nM.

As for TPTEKDEYCARVNH [H. sapiens B2-m peptide …], the IC50 in experiment [1] turned out to be 29500 nM. Still for that read-out and setting: the value for DCLLCAYSIEFGTNISKEHD [Gallus gallus ovomucoid peptide …] was 146 nM; that for FDRSTKVIDFHYPNE was 3960 nM.

For the molecule KPVSKMRMATPLLMQALP [Homo sapiens Ii chain peptide …], in experiment [2], the IC50 came to 30 nM. In experiment [1], RMMEYGTTMVSYQPL came in with an IC50 of 185 nM.

Regarding PLYRYLGGSFSHVL [C. trachomatis enolase peptide …], in experiment [3], the IC50 turned out to be 2460 nM. Turning to TEDQAMEDIKQMEAESIS [Bos taurus a-S1 casein peptide …], the IC50 in experiment [2] was 439 nM.

For the origin of these results see PMC3307390 (Journal of Immunology (Baltimore, Md. : 1950), 2010).
